{"source": "patent US20200147177A1", "about": "“INTERLEUKIN 12 (IL12) OR DERIVATIVE THEREOF FOR USE IN THE TREATMENT OF SECONDARY DISEASE” (priority 2017, published 2020)", "key": {"[1]": {"test_system": "Escherichia coli", "assay": "Secondary E. coli pneumonia in infection-cured mice, c.f.u. in bronchoalveolar lavage", "format": "in vivo", "conditions": "IL-12 100 ng i.p. concurrent with induction of secondary pneumonia; c.f.u. from BAL 16 hours after E. coli; FIG. 4g"}, "[2]": {"test_system": "NK cells", "assay": "Functional assay of NK cells in PBMC treated or not overnight with IL12", "format": "cell-based, human", "conditions": "PBMC of traumatic-brain injured patients day 1 and day 7 and healthy controls; overnight IL-12; 5-hours functional assay; FIG. 18", "description": "(i) spontaneous lysis with and without O/N treatment with IL-12 of PBMC of traumatic-brain injured patients on days 1 (d1) (n=5) and day 7(d7) (n=5) and healthy controls (HC) (n=5) and (ii) reverse ADCC with and without O/N treatment with IL-12 of PBMC of TBI on days 1 (n=6) and 7 (n=6) and HC (n=4)\nEDTA-anticoagulated blood samples were withdrawn seven days after primary infection in septic patients (IBIS sepsis), or at day 1 and day 7 ICU admission in trauma patients. Peripheral blood mononuclear cells (PBMCs) were isolated by centrifugation, frozen in liquid nitrogen in a 10% DMSO solution and stored until analysis."}, "[3]": {"test_system": "E. coli, S. aureus", "assay": "Bacterial pneumonia in mice cured from infection or from trauma-hemorrhage (FIG. 17)", "format": "in vivo"}, "[4]": {"test_system": "lung DC, macrophages and NK cells", "assay": "Intracellular staining of DC, macrophages and lymphocytes for cytokines during secondary pneumonia", "format": "in vivo, mice", "conditions": "IL-12 100 ng i.p.; secondary pneumonia 7 days after primary E. coli pneumonia; FIG. 11e", "description": "For intracellular staining of cytokines in DC or lymphocytes, cell suspensions were obtained by mechanical and collagenase digestion of lungs collected 16 hours after injection of E. coli. Cells were cultured 4 hours in complete media with Golgi Plug, washed twice and then stained for surface markers. Fixation and permeabilization was performed following manufacturer instructions (BD Cytofix/Cytoperm kit, BD Bioscience). Anti-cytokine antibody was incubated overnight at 4° C. Cells were washed twice before FACS analysis.\nMice were treated with IL-12 (100 ng i.p., Abcam) concomitantly to the induction of the secondary pneumonia. Anti-TGFβ monoclonal antibody (1B11, 44 μg i.p. every 3 days) or isotype control IgG1 monoclonal antibody (MG1-45, Biolegend) injections were performed 3 and 6 days after primary pneumonia. TGF-β (1 μg i.p., Thermofisher) was injected once 6 days after primary pneumonia in DT-treated CD11c-DTR chimeric mice"}}}
{"molecule": "IL-12: heterodimeric cytokine encoded by IL-12A (p35) and IL-12B (p40); Abcam, 100 ng i.p. (protein, UniProt P43431 23-215; P43432 23-335, looked up) Interleukin-12 subunit alpha: RVIPVSGPARCLSQSRNLLKTTDDMVKTAREKLKHYSCTAEDIDHEDITRDQTSTLKTCLPLELHKNESCLATRETSSTTRGSCLPPQKTSLMMTLCLGSIYEDLKMYQTEFQAINAALQNHNHQQIILDKGMLVAIDELMQSLNHNGETLRQKPPVGEADPYRVKMKLCILLHAFSTRVVTINRVMGYLSSA Interleukin-12 subunit beta: MWELEKDVYVVEVDWTPDAPGETVNLTCDTPEEDDITWTSDQRHGVIGSGKTLTITVKEFLDAGQYTCHKGGETLSHSHLLLHKKENGIWSTEILKNFKNKTFLKCEAPNYSGRFTCSWLVQRNMDLKFNIKSSSSSPDSRAVTCGMASLSAEKVTLDQRDYEKYSVSCQEDVTCPTAEETLPIELALEARQQNKYENYSTSFFIRDIIKPDPPKNLQMKPLKNSQVEVSWEYPDSWSTPHSYFSLKFFVRIQRKKEKMKETEEGCNQKGAFLVEKTSTEVQCKGGNVCVQAQDRYYNSSCSKWACVPCRVRS", "values": [{"measurement": "bacterial clearance during secondary pneumonia", "setting": "[1]", "result": "enhanced bacterial clearance"}, {"measurement": "responsiveness of NK cells to IL-12 (IFNγ+ CD107a+ NK cells)", "setting": "[2]", "result": "remain responsive"}, {"measurement": "clinical recovery during bacterial pneumonia", "setting": "[3]", "result": "enhances clinical recovery"}, {"measurement": "innate immune response during bacterial pneumonia", "setting": "[3]", "result": "restores innate immune response"}, {"measurement": "IFN-γ production by NK cells during secondary pneumonia", "setting": "[4]", "result": "restored"}]}
